In the RNAGym collection of RNA variant scans (doi:10.7554/elife.90254):

B1: LINE1-full (parent)
chain: UACGUAGGUGGUUUUCCCCUGAUAGUGCUAAGGGGGCCUGGAAGUUUGGACUGGGCAGAGCUCAACACAGCGUGGCAAAGUGGCUGUGGCUAGACUGCCUCUCUGGAUUCCUCGUCACUCAGCAGGGCAUCUCUGAGAGAAAUGCC

Variants of: B1
Experiment: self-cleavage, relative activity (ratio to wild type); higher = more cleavage; in vitro, sequencing; the parent is a self-cleaving ribozyme

Compared with U62C A69U, A64G C146U is higher in self-cleavage: 0.03 for the first, 0.24 for the second.

Going from A64G U73C to A64G U73A, the self-cleavage rises from 0.17 to 0.19.

Compared with A64G C66U, U62A G144A is lower in self-cleavage: 0.08 for the first, 0.05 for the second.

Compared with U62C C145U, A59U C95U is higher in self-cleavage: 0 for the first, 0.19 for the second.

Compared with A64G A78U, U62G A67G is lower in self-cleavage: 0.23 for the first, 0.09 for the second.

Going from U62A C120U to A64G G105A, the self-cleavage rises from 0.02 to 0.03.

Going from U62A G83A to G60A A141G, the self-cleavage falls from 0.05 to 0.02.

Going from A64G C116A to U62C C66A, the self-cleavage falls from 0.1 to 0.02.

First: C61U A140G
Second: A59U G75A
The self-cleavage of the first is lower: 0.03 for the first, 0.51 for the second.

Going from U62C G89A to C63A A94G, the self-cleavage rises from 0.01 to 0.08.

Going from G60U A79G to A64G U81C, the self-cleavage rises from 0.05 to 0.3.

Going from U62C U100C to A59U U143A, the self-cleavage rises from 0.09 to 0.75.

First: A59U A129U
Second: A59U A129G
The self-cleavage of the first is lower: 0.51 for the first, 0.86 for the second.

First: A59U A129C
Second: C63U U87A
The self-cleavage of the first is higher: 1.15 for the first, 0.07 for the second.

Compared with C61U A79G, A64G C98U is higher in self-cleavage: 0.01 for the first, 0.11 for the second.

Going from A64C U96C to C61G C145U, the self-cleavage falls from 0.18 to 0.03.

Going from U62A A141G to A59U A140G, the self-cleavage rises from 0.05 to 0.89.

First: U62A U115C
Second: G60A A140U
The self-cleavage of the first is higher: 0.04 for the first, 0.03 for the second.

Compared with A64C A138G, G60U A117G is lower in self-cleavage: 0.31 for the first, 0.04 for the second.

First: C61G A129C
Second: G60A U143A
The self-cleavage of the first is lower: 0.03 for the first, 0.05 for the second.

Compared with A64C U73A, C61U A64U is lower in self-cleavage: 0.32 for the first, 0.06 for the second.

Compared with U62G C63U, U62A A129G is lower in self-cleavage: 0.07 for the first, 0.06 for the second.

Compared with A59U U130A, U62A G82A is lower in self-cleavage: 0.74 for the first, 0.03 for the second.

Going from U62C A77G to U62C A77U, the self-cleavage falls from 0.08 to 0.03.

Going from U62G A136G to A59U C99U, the self-cleavage rises from 0 to 0.46.

First: U62C U85G
Second: G60U
The self-cleavage of the first is lower: 0 for the first, 0.01 for the second.

First: G60C
Second: G60A
The self-cleavage of the first is higher: 0.05 for the first, 0.02 for the second.

Going from A59U A117U to C61U U87C, the self-cleavage falls from 0.8 to 0.03.

Compared with A59U U115A, C61A U104C is lower in self-cleavage: 0.8 for the first, 0.04 for the second.

Compared with G60A U85C, U62C C128U is higher in self-cleavage: 0.01 for the first, 0.03 for the second.

Going from G60A A64G to A64G A136G, the self-cleavage rises from 0.04 to 0.22.

First: A64G A136U
Second: A64C A141U
The self-cleavage of the first is lower: 0.28 for the first, 0.3 for the second.

First: A64C A141G
Second: U62C G126U
The self-cleavage of the first is higher: 0.48 for the first, 0.04 for the second.

Compared with U62C G126C, A59U A69U is higher in self-cleavage: 0.01 for the first, 0.04 for the second.

First: U62A G72A
Second: U62A G72C
The self-cleavage of the first is lower: 0.01 for the first, 0.03 for the second.

First: A64C U87C
Second: U62A A142G
The self-cleavage of the first is higher: 0.22 for the first, 0.02 for the second.

Going from A59U A136G to A59U C103U, the self-cleavage falls from 1.1 to 0.5.

Going from A59U U112A to A59U U112C, the self-cleavage rises from 0.83 to 1.51.

First: U62A U134A
Second: U62A U85A
The self-cleavage of the first is higher: 0.07 for the first, 0.02 for the second.

Going from U62A U85C to U62A U85G, the self-cleavage falls from 0.08 to 0.

First: U62G U115G
Second: A64G A141C
The self-cleavage of the first is higher: 0.14 for the first, 0.11 for the second.

A64G A141U and C63U A69G are the same in self-cleavage: 0.17 for the first, 0.17 for the second.

Compared with U62A G93U, G60A U104C is higher in self-cleavage: 0.03 for the first, 0.07 for the second.

First: A64G A124G
Second: U62G U73C
The self-cleavage of the first is higher: 0.28 for the first, 0 for the second.

Compared with C61A U130A, G60A U132C is lower in self-cleavage: 0.06 for the first, 0.03 for the second.

Compared with C61A A79G, A59U U87C is higher in self-cleavage: 0.02 for the first, 0.22 for the second.

First: U62A C66U
Second: G60A A79G
The self-cleavage of the first is lower: 0.01 for the first, 0.05 for the second.

First: U62G U87G
Second: U62G U87A
The self-cleavage of the first is lower: 0 for the first, 0.1 for the second.

First: C63U U143C
Second: C63U U143A
The self-cleavage of the first is lower: 0.3 for the first, 0.44 for the second.

Compared with U62A A124G, U62G U130C is higher in self-cleavage: 0.02 for the first, 0.11 for the second.

First: U62C G127A
Second: C63A A121U
The self-cleavage of the first is higher: 0.06 for the first, 0 for the second.

Going from A64G A107G to C61A U81C, the self-cleavage falls from 0.33 to 0.04.

First: G60C U134A
Second: G60C U115C
The self-cleavage of the first is higher: 0.07 for the first, 0.02 for the second.

Compared with A64C U132C, G60A A129U is lower in self-cleavage: 0.34 for the first, 0.02 for the second.

Compared with A64C U112C, A59U U119C is higher in self-cleavage: 0.29 for the first, 0.6 for the second.

First: U62A C110U
Second: U62C A136U
The self-cleavage of the first is higher: 0.08 for the first, 0.05 for the second.

First: U62C A136C
Second: U62C U112C
The self-cleavage of the first is higher: 0.1 for the first, 0.05 for the second.

Going from C61U G82A to A59U A141U, the self-cleavage rises from 0.02 to 1.03.

First: A59U A141G
Second: A59U U73C
The self-cleavage of the first is lower: 0.96 for the first, 1.27 for the second.

Going from A64G G125U to G60A A124U, the self-cleavage falls from 0.33 to 0.02.

Going from A59U U104A to U62C U109A, the self-cleavage falls from 0.81 to 0.03.

Going from U62C U109C to G60A A117G, the self-cleavage rises from 0.08 to 0.11.

Going from U62C C99U to U62C C98A, the self-cleavage falls from 0.04 to 0.03.

Compared with U62C C98U, A59U A67U is higher in self-cleavage: 0.02 for the first, 0.1 for the second.

Going from U62C G122A to U62C G122C, the self-cleavage falls from 0.04 to 0.03.

First: A59U U96C
Second: A64G G97A
The self-cleavage of the first is higher: 0.24 for the first, 0.07 for the second.

Compared with A64G G97C, U62C A140U is lower in self-cleavage: 0.11 for the first, 0.04 for the second.

Going from U62A C103A to U62C U119C, the self-cleavage rises from 0.04 to 0.07.

Compared with U62C U119A, C63U U73G is higher in self-cleavage: 0.07 for the first, 0.21 for the second.

Compared with U62G A77G, U62C A142G is lower in self-cleavage: 0.07 for the first, 0.06 for the second.

Compared with A59U C71U, C63U U132C is lower in self-cleavage: 0.64 for the first, 0.35 for the second.

First: C63U U132A
Second: A59U U132C
The self-cleavage of the first is lower: 0.46 for the first, 0.71 for the second.

Compared with G60A U91C, U62A C99A is higher in self-cleavage: 0 for the first, 0.03 for the second.

Going from U62C C113G to A64G A140G, the self-cleavage rises from 0.07 to 0.26.

U62C C110A and U62C U134A are the same in self-cleavage: 0.05 for the first, 0.05 for the second.

Compared with U62C U134C, G60A A92G is lower in self-cleavage: 0.05 for the first, 0.03 for the second.

Compared with A64G A69C, A64G A69G is higher in self-cleavage: 0 for the first, 0.07 for the second.

Going from A64G A69U to A64C A65U, the self-cleavage falls from 0.08 to 0.06.

Going from A64C A65G to G60A C99A, the self-cleavage falls from 0.19 to 0.05.

Compared with A64G C123U, U62C C118U is lower in self-cleavage: 0.26 for the first, 0.03 for the second.

U62A A138G and U62A A138U are the same in self-cleavage: 0.06 for the first, 0.06 for the second.

Going from C63A U81A to U62C A138U, the self-cleavage falls from 0.06 to 0.01.

Going from A59U A138C to A59U A138G, the self-cleavage falls from 1.23 to 0.83.

A59U A138U showed a self-cleavage of 0.88.
